“Also recorded” adds a separate entry of the source.
B1: recombinant IL-4: recombinant IL-4 cytokine (protein, UniProt P05112 25-153, looked up)
Interleukin-4: HKCDITLQEIIKTLNSLTEQKTLCTELTVTDIFAASKNTTEKETFCRAATVLRQFYSHHEKDTRCLGATAQQFHRHKQLIRFLKRLDRNLWGLAGLNSCPVKEANQSTLENFLERLKTIMREKYSKCSS
B2: rIl-33: murine recombinant Il-33 (#580504, R&D Systems) (protein, UniProt Q8BVZ5 1-266, looked up)
Interleukin-33: MRPRMKYSNSKISPAKFSSTAGEALVPPCKIRRSQQKTKEFCHVYCMRLRSGLTIRKETSYFRKEPTKRYSLKSGTKHEENFSAYPRDSRKRSLLGSIQAFAASVDTLSIQGTSLLTQSPASLSTYNDQSVSFVLENGCYVINVDDSGKDQEQDQVLLRYYESPCPASQSGDGVDGKKLMVNMSPIKDTDIWLHANDKDYSVELQRGDVSPPEQAFFVLHKKSSDFVSFECKNLPGTYIGVKDNQLALVEEKDESCNNIMFKLSKI

How the values were obtained:
[1] = test system: mutant Kras pancreatic organoids; test: Growth of mutant Kras pancreatic organoids with recombinant IL-4 / IL-13 (Cell Titer Glo); format: cell-based, mouse; settings: pre-malignant mutant Kras G12D; for proliferation (Cell Titer Glo): 6-day growth; for proliferation (Cell Titer Glo) after cytokine pre-treatment: pre-treatment with the cytokines during 2 weeks
Experimental: Isolation, culture and genetic manipulation of pancreatic organoids. To isolate untransformed ductal organoids for the transplantable PDAC tumorigenesis model, normal pancreas from LSL-KrasG12D mice (pure Bl/6N background) minced and digested with 0.012% collagenase XI (C9407, Sigma-Aldrich) and 0.012% Dispase (17105041, Life Technologies) in HBSS with Mg^2+ and Ca^2+ (14025076, Thermo Fisher Scientific) at 37° C. for a maximum of 30 mins. The material was further digested with TrypLE (GIBCO) for 5 min at 37° C., washed twice with DMEM/F12 (Life Technologies) supplemented with 2 mM glutamine and penn-strep, embedded in growth factor reduced matrigel (Corning), and cultured in complete medium, as described in Boj et al 2014. For activation of mutant Kras, organoids haroburing the LSL-KrasG12D allele were transduced with Ad-mCherry-Cre (Vector Biolabs), and Cherry^+ cells were sorted from single cell organoid suspension by flow cytometry 36h thereafter. Resulting clones were assessed for LSL-KrasG12D recombination by genotyping PCR in genomic DNA using the following primers: 5′ gtc ttt ccc cag cac agt gc 3′ (SEQ ID NO: 19), 5′ ctc ttg cct acg cca cca get c 3′ (SEQ ID NO: 20), and 5′ agc tag cca cca tgg ctt gag taa gtc tgc a 3′ (SEQ ID NO: 21). Validated Cre-recombined clones were then subjected to CRISPR-based inactivation of Trp53 using the PX458 vector (Addgene #48138) and gRNA […] sequence (SEQ ID NO: 22). PX458-sgTrp53 was transduced into organoids by transient transfection using the spinoculation method previously described (O'Rourke et al., 2017), with the modification of using the Effectene transfection reagent (Qiagen). PX458-sgTrp53 introduced cells were sorted by GFP positivity with flow cytometry 36h post-transfection. p53 null status of targeted clones was validated by western blot, using anti-p53 antibody (CMS, Leica Microsystem) and anti-β-actin-peroxidase antibody (Sigma-Aldrich) as normalization control.
This activation was specific (i.e. not observed for many other cytokine receptors, nor during normal pancreas regeneration) and is associated with the emergence of multiple de novo ATAC peaks (FIG. 14B). Preliminary gain-of-function experiments in mutant Kras pancreatic organoids indicate that these druggable Th2 cytokine receptors are functional and modulate organoid growth in vitro (FIG. 14C).

[2] = test system: Kras mutant (KC-GEMM) mice; test: Recombinant Il-33 treatment of Kras mutant (KC-GEMM) mice; format: in vivo, mouse; settings: for expression of cell fate / PanIN markers (Agr2, Muc6, Dclk1, Cpa1, Sox9) in mKate2+ pancreatic epithelial cells: KC mice, qRT-PCR, 21 days after treatment; for mutant KRAS-driven tumorigenesis / mucinous PanIN lesions (H&E, Alcian Blue, mKate2) / expansion of Dclk1+ cancer stem cells (Dclk1 immunofluorescence): KC-GEMM mice, 5 consecutive days; for mutant KRAS-driven tumorigenesis / mucinous PanIN lesions (H&E, Alcian Blue, mKate2): 1 ug/mouse i.p. once daily, analyzed 21 days thereafter, vs vehicle (PBS); for expansion of Dclk1+ cancer stem cells (Dclk1 immunofluorescence): 1 ug/mouse, day 21 post-treatment
Experimental: (§1) To compare the effects of tissue injury in the transcriptional and chromatin accessibility landscapes of mutant Kras-expressing or Kras wild-type pancreatic epithelial cells, KC;RIK (p48-Cre;RIK;LSLKrasG12D) or C;RIK (p48-Cre;RIK) male mice were treated with 8 hourly intraperitoneal injections of 80 μg/kg caerulein (Bachem) or PBS for 2 consecutive days, using littermates when possible. To characterize invasive disease, pancreatic ductal adenocarcinoma (PDAC) cells were isolated from cancer lesions arising in autochthonous transgenic models (KPflC;RIK (p48Cre;RIK;LSL-KrasG12D;p53fl/^+) that were macro-dissected away from pre-malignant tissue. As an orthogonal approach, C57Bl/6 female mice (Harlan) were subjected to for orthotopic transplantations with syngeneic ductal organoids harboruing mutant Kras and inactivated Trp53 gene (see below). Prior to transplantation, organoid cultures were dissociated with TrypLE (Gibco) after mechanical dissociation by pipetting and 1-2×10^5 cells in serum-free advanced DMEM/F12 (Life Technologies) supplemented with 2 mM glutamine and penn-strep were mixed 1:1 with growth factor reduced matrigel (Corning) and injected into the exposed pancreas of 8-10 weeks old C57B16/N mice using a Hamilton syringe fitted with a 26 gauge needle. For treatment with recombinant Il-33, 5 weeks-old C or KC mice were injected intraperitoneally once daily doses with 1 ug of murine recombinant Il-33 (#580504, R&D Systems) or vehicle (PBS) for 5 consecutive days.
Immunofluorescence, immunohistochemistry and histological analyses. Tissues were fixed overnight in 10% neutral buffered formalin (Richard-Allan Scientific), embedded in paraffin and cut into 5 μm sections. Slides were heated for 30 min at 55° C., deparaffinized, rehydrated with an alcohol series and subjected to antigen retrieval with citrate buffer (Vector Laboratories Unmasking Solution, H-3300) for 25 min in a pressure cooker set on high. Sections were treated with 3% H2O2 for 10 min followed by a wash in dionized water (for immunohistochemistry only), washed in PBS, then blocked in PBS/0.1% Triton X-100 containing 1% BSA. Primary antibodies were incubated overnight at 4° C. in blocking buffer. The following primary antibodies were used: mKate2 (Evrogen, AB233), GFP (ab13970, Abcam and 2956S, Cell Signaling Technology), Brd4 (HPA015055, Sigma-Aldrich), Myc (ab32072, Abcam), Cpa1 (R&D, AF2765), Clusterin (SCBT sc-6419), SOX9 (Millipore AB553), Amylase (sc-31869, Santa Cruz), Krt19 (Troma III, Developmental Studies Hybridoma Bank) and Il-33 (AF3626, R&D). For mKate2, GFP and cMyc immunohistochemistry, Vector ImmPress HRP kits and ImmPact DAB (Vector Laboratories) were used for secondary detection. Tissues were then counterstained with Haematoxylin or when indicated Alcian blue (pH 2.5) and 0.1% Nuclear Fast Red Solution, dehydrated and mounted with Permount (Fisher). The immunohistochemistry detection of Brd4 was performed at the Molecular Cytology Core Facility of Memorial Sloan Kettering Cancer Center using Discovery XT processor (Ventana Medical Systems-Roche). The tissue sections were blocked for 30 min in 10% normal goat serum, 2% BSA in PBS. A rabbit polyclonal anti-Brd4 antibody (HPA015055, Sigma-Aldrich) was used in 1 ug/ml (1:100) concentrations. The incubation with the primary antibody was done for 6 hours, followed by 60 minutes incubation with biotinylated goat anti-rabbit IgG (PK610, Vector labs) in 5.75 ug/mL concentration. Blocker D, Streptavidin-HRP and DAB detection kit (760-124, Ventana Medical Systems-Roche) were used according to the manufacturer instructions. Slides were counterstained with Hematoxylin (760-2021, Ventana), Bluing Reagent (760-2037, Ventana) and coverslipped with Permount (Fisher Scientific). […]

[3] = test system: Kras-wild type (C-GEMM) mice; test: Recombinant Il-33 treatment of Kras wild-type (C-GEMM) mice; format: in vivo, mouse; settings: 21 days after treatment; for pancreas histology (H&E, Alcian Blue): same dosing
Experimental: as §1
Immunofluorescence, immunohistochemistry and histological analyses. Tissues were fixed overnight in 10% neutral buffered formalin (Richard-Allan Scientific), embedded in paraffin and cut into 5 μm sections. Slides were heated for 30 min at 55° C., deparaffinized, rehydrated with an alcohol series and subjected to antigen retrieval with citrate buffer (Vector Laboratories Unmasking Solution, H-3300) for 25 min in a pressure cooker set on high. Sections were treated with 3% H2O2 for 10 min followed by a wash in dionized water (for immunohistochemistry only), washed in PBS, then blocked in PBS/0.1% Triton X-100 containing 1% BSA. Primary antibodies were incubated overnight at 4° C. in blocking buffer. The following primary antibodies were used: mKate2 (Evrogen, AB233), GFP (ab13970, Abcam and 2956S, Cell Signaling Technology), Brd4 (HPA015055, Sigma-Aldrich), Myc (ab32072, Abcam), Cpa1 (R&D, AF2765), Clusterin (SCBT sc-6419), SOX9 (Millipore AB553), Amylase (sc-31869, Santa Cruz), Krt19 (Troma III, Developmental Studies Hybridoma Bank) and Il-33 (AF3626, R&D). For mKate2, GFP and cMyc immunohistochemistry, Vector ImmPress HRP kits and ImmPact DAB (Vector Laboratories) were used for secondary detection. […]

Molecule | proliferation (Cell Titer Glo) [1] | proliferation (Cell Titer Glo) after cytokine pre-treatment [1] | expression of cell fate / PanIN markers (Agr2, Muc6, Dclk1, Cpa1, Sox9) in mKate2+ pancreatic epithelial cells [2] | expression of cell fate / PanIN markers (Agr2, Muc6, Dclk1, Cpa1, Sox9) in mKate2+ pancreatic epithelial cells ([2]; listed as recombinant IL-33) | mutant KRAS-driven tumorigenesis / mucinous PanIN lesions (H&E, Alcian Blue, mKate2) [2] | mutant KRAS-driven tumorigenesis / mucinous PanIN lesions (H&E, Alcian Blue, mKate2) ([2]; listed as recombinant IL-33) | expansion of Dclk1+ cancer stem cells (Dclk1 immunofluorescence) ([2]; listed as Recombinant IL-33) | expansion of Dclk1+ cancer stem cells (Dclk1 immunofluorescence) ([2]; listed as recombinant IL-33) | expression of cell fate / PanIN markers in mKate2+ pancreatic epithelial cells [3] | expression of cell fate / PanIN markers in mKate2+ pancreatic epithelial cells ([3]; listed as recombinant IL-33) | pancreas histology (H&E, Alcian Blue) [3] | pancreas histology (H&E, Alcian Blue) ([3]; listed as recombinant IL-33)
IL-13: recombinant IL-13 cytokine | pro-proliferative effects | further enhanced |  |  |  |  |  |  |  |  |  | 
B1 | pro-proliferative effects | further enhanced |  |  |  |  |  |  |  |  |  | 
B2 |  |  | selective effects | accelerates mutant KRAS-driven tumorigenesis | sufficient to trigger many of the tumor-promoting outputs of injury in the mutant Kras setting; also recorded: accelerated ADR with development of mucinous lesions | promoted tumorigenesis; also recorded: accelerates mutant KRAS-driven tumorigenesis; also recorded: enhanced tumorigenesis | sufficient to drive expansion of Dclk1^+ cancer stem cells in vivo | cancer stem cell expansion | no detectable effects | no effect | no detectable effects; also recorded: retain normal architecture | no effect
